We go through 15 molecules from paper PMC9891502 (PLOS Pathogens, 2023).

For experiment [1], the target named is gB AD-2S1 peptide (human cytomegalovirus). The experiment is described as follows: SPR. To be noted: both partners purified.
Experiment [2] has as its target T1, gB AD-2S1 peptide (Human cytomegalovirus (HHV-5), gB …).
T1 chain: HRANETIYNTTLKYG
The experiment is described as follows: ELISA; 384-well plates coated overnight at 4°C with 45 ng gB AD-2S1 peptide or gB ectodomain per well; mAbs in a 12-point 3-fold dilution from 1 μg/mL; detected with goat anti-human IgG-HRP; EC50. The following applies: both partners purified.

The target of experiment [3] is T2, gB on whole CMV virions of strain TB40/E (Human cytomegalovirus strain TB40/E (gB …, UniProt P13201, strain)).
T2 construct: also called whole virion CMV strain TB40/E; source: whole TB40/E virions coated on the plate (33 PFU/well)
The experiment can be described thus: ELISA. To be noted: one partner purified. (In an ELISA, binding on a coated surface is turned into a signal by an enzyme label.)

Experiment [4] addresses T3, full-length gB (Towne strain) expressed on HEK293T cells (Human cytomegalovirus strain Towne, UniProt P13201). The experiment can be described thus: cell-based or functional assay.
The target of experiment [5] is T3, full-length gB (Towne strain) expressed …. The experiment is described as follows: flow cytometry on cells. More on the design: AUC of a 3-point dilution series: unit not given beside the values. To be noted: one partner purified. For orientation: A flow cytometer gives signals particle by particle.
The target in experiment [6] is T1, gB AD-2S1 peptide. The experiment can be described thus: SPR. To be noted: both partners purified.

B1: TRL345 I8 (antibody, V domains shown)
VH: QVQLVESGGGVVQPGRSLRLSCAASGFTFSSYNMHWVRQAPGKGLEWVAVISNDGSNKYYADSVKGRFTISRDNSKNTLYLQMNSLRAEDTAVYYCARDGRSVGGFSGILDPWGQGTLVTVSS
VL: not shown
Regarding B1, in the experiment with gB AD-2S1 peptide [1], the Kd (usually the free concentration of one partner at which half of the binding sites on the other are occupied at equilibrium, for simple one-to-one binding) was 23.2 nM and the association rate constant (kon) – broadly, the second-order rate constant of association – amounted to 1.33e+08 M⁻¹ s⁻¹.

B2: TRL345 lineage intermediate 8 (I8) mAb (antibody, V domains shown)
VH: QVQLVESGGGVVQPGRSLRLSCAASGFTFSSYNMHWVRQAPGKGLEWVAVISNDGSNKYYADSVKGRFTISRDNSKNTLYLQMNSLRAEDTAVYYCARDGRSVGGFSGILDPWGQGTLVTVSS
VL: not shown
Take B2: in the experiment with gB AD-2S1 peptide [2], the “fold increase in ELISA binding magnitude against the UCA” value worked out at 151 fold. In addition, in experiment [3], the binding result is recorded as “binds”. For the same molecule, in experiment [4], the “neutralization IC50, CMV strain AD169rUL131-GFP (gB genotype 2) on MRC-5 fibroblasts” value was determined as 0.83 µg/mL and the “neutralization IC50, CMV strain Towne (gB genotype 1) on MRC-5 fibroblasts” value stood at 2.78 µg/mL. Also, the “AUC of a 3-point dilution series” value in experiment [5] is 133 ± 33.3.

B3: I8 with VL S30G reverted to germline (antibody, V domains shown)
VH: QVQLVESGGGVVQPGRSLRLSCAASGFTFSSYNMHWVRQAPGKGLEWVAVISNDGSNKYYADSVKGRFTISRDNSKNTLYLQMNSLRAEDTAVYYCARDGRSVGGFSGILDPWGQGTLVTVSS
VL: not shown
As for B3, the binding result (with gB AD-2S1 peptide [2]; in experiment [5]) was “binds” throughout. For the same molecule, the “fold decrease in neutralization potency for CMV strain Towne against I8” value in experiment [4] stood at 9 fold.

B4: TRL345 UCA with VH A33N (antibody, V domains shown)
VH: QVQLVESGGGVVQPGRSLRLSCAASGFTFSSYNMHWVRQAPGKGLEWVAVISYDGSNKYYADSVKGRFTISRDNSKNTLYLQMNSLRAEDTAVYYCARDGRSVGGFSGILDPWGQGTLVTVSS
VL: not shown
Take B4: the “fold increase in binding magnitude against the UCA” value turned out to be 269 fold in the experiment with gB AD-2S1 peptide [2] and 2.5 fold in experiment [5].

B5: I8 with VL N53D reverted to germline (antibody, V domains shown)
VH: QVQLVESGGGVVQPGRSLRLSCAASGFTFSSYNMHWVRQAPGKGLEWVAVISNDGSNKYYADSVKGRFTISRDNSKNTLYLQMNSLRAEDTAVYYCARDGRSVGGFSGILDPWGQGTLVTVSS
VL: not shown
For the molecule B5, the binding result (with gB AD-2S1 peptide [2]; in experiment [5]) was “binds” in each case. For the same molecule, the “fold decrease in neutralization potency for CMV strain Towne against I8” value in experiment [4] amounted to 2.5 fold.

B6: I8 with VH A33N reverted to germline (antibody, V domains shown)
VH: QVQLVESGGGVVQPGRSLRLSCAASGFTFSSYAMHWVRQAPGKGLEWVAVISNDGSNKYYADSVKGRFTISRDNSKNTLYLQMNSLRAEDTAVYYCARDGRSVGGFSGILDPWGQGTLVTVSS
VL: not shown
For B6, the other turned out to be 395 fold with gB AD-2S1 peptide [2] and 1.4 fold in experiment [5].

B7: TRL345 UCA with VL S30G (antibody, V domains shown)
VH: QVQLVESGGGVVQPGRSLRLSCAASGFTFSSYAMHWVRQAPGKGLEWVAVISYDGSNKYYADSVKGRFTISRDNSKNTLYLQMNSLRAEDTAVYYCARDGRSVGGFSGILDPWGQGTLVTVSS
VL: not shown
Consider B7, for which the “fold increase in binding magnitude against the UCA” value is 1.8 fold with gB AD-2S1 peptide [2] and 1.2 fold in experiment [5].

B8: I8 with VH Y52aN reverted to germline (antibody, V domains shown)
VH: QVQLVESGGGVVQPGRSLRLSCAASGFTFSSYNMHWVRQAPGKGLEWVAVISYDGSNKYYADSVKGRFTISRDNSKNTLYLQMNSLRAEDTAVYYCARDGRSVGGFSGILDPWGQGTLVTVSS
VL: not shown
For the molecule B8, the binding result (with gB AD-2S1 peptide [2]; in experiment [5]) was “binds” in each case.

B9: TRL345 lineage second intermediate (I4) mAb (antibody, V domains shown)
VH: QVQLVESGGGVVQPGRSLRLSCAASGFTFNTYNMHWVRQAPGKGLEWVAVISNDGTYKYSADSVKGRFSISRDNSKNTLYLQMNSLRPDDTAVYYCARDGRSVGGFSGILDPWGQGTLVTVSS
VL: EIVLTQSPATLSLSPGDRATLSCRASQSVGSYLAWYQQKPGQAPRLLIYDASDRATGIPARFSGSGSGTDFTLTISSLEPEDFAVYYCQQRSNWPPLTFGGGTKVEIK
B9: the other with gB AD-2S1 peptide [6] is 5 fold.

B10: TRL345 UCA with VH A33G (antibody, V domains shown)
VH: QVQLVESGGGVVQPGRSLRLSCAASGFTFSSYGMHWVRQAPGKGLEWVAVISYDGSNKYYADSVKGRFTISRDNSKNTLYLQMNSLRAEDTAVYYCARDGRSVGGFSGILDPWGQGTLVTVSS
VL: not shown
On to B10, for which the “fold increase in binding against the TRL345 UCA” value was ~15 fold with gB AD-2S1 peptide [2] and 1.1 fold in experiment [5].

B11: TRL345 UCA (antibody, V domains shown)
VH: QVQLVESGGGVVQPGRSLRLSCAASGFTFSSYAMHWVRQAPGKGLEWVAVISYDGSNKYYADSVKGRFTISRDNSKNTLYLQMNSLRAEDTAVYYCARDGRSVGGFSGILDPWGQGTLVTVSS
VL: not shown
notes: also called unmutated common ancestor
B11: in the experiment with gB AD-2S1 peptide [1], binding was characterised by a dissociation constant (Kd) of 27.6 nM and the kon stood at 9.73e+07 M⁻¹ s⁻¹.

B12: anti-gB AD-2 mAb 3-25 (antibody, V domains shown)
VH: QVQLVESGGGVVQPGRSLRLSCAASGFTFSNHGLHWVRQPPGKGLEWVAVVSKDGTNEHYADSVRGRFTISRDNSKNTLYLLMKSLRLEDTAVYYCAREGYCGDDRCYSGQPDYWGQGILVTVSS
VL: EIVLTQFPATLSLSPGERATLSCRASQSVGRYLAWYQQKPGQAPRLLIYDSSNRATGVPARFSGSGSGTDFTLSISSLEPEDFAVYFCQQRSHWPPLTFGGGTKVEIK
For the molecule B12, in the experiment with gB AD-2S1 peptide [1], the affinity, expressed as Kd, was 4.42 nM and the kon stood at 1.49e+08 M⁻¹ s⁻¹.

B13: TRL345 (antibody, V domains shown)
VH: QVQLVESGGGVVQPGRSLRLSCAASGFTFSDYNMHWVRQAPGKGLEWVAVISIDGTYKYSADSVAGRFSLSRDNSKNTLYLQMNSLRPDDTAIYYCARDGRSVGGFSGILDPWGQGTLVTVSS
VL: EIVMTQSPATLSLSPGDRATLSCRASQSVGSYLAWYQQKPGQAPRLLMYDSSVRATGIPARFSGSGSGTDFTLTISSLEPEDFAVYYCQQRNNWPPLTFGGGTKVEIK
notes: also called MAB345
In the experiment with gB AD-2S1 peptide [1], B13 registered a Kd of 0.29 nM and a kon of 1.52e+08 M⁻¹ s⁻¹.

B14: TRL345 mAb (antibody, V domains shown)
VH: QVQLVESGGGVVQPGRSLRLSCAASGFTFSDYNMHWVRQAPGKGLEWVAVISIDGTYKYSADSVAGRFSLSRDNSKNTLYLQMNSLRPDDTAIYYCARDGRSVGGFSGILDPWGQGTLVTVSS
VL: EIVMTQSPATLSLSPGDRATLSCRASQSVGSYLAWYQQKPGQAPRLLMYDSSVRATGIPARFSGSGSGTDFTLTISSLEPEDFAVYYCQQRNNWPPLTFGGGTKVEIK
Take B14: in experiment [4], the “neutralization IC50 on ARPE epithelial cells” value was < 0.35 µg/mL and the “neutralization IC50 on MRC-5 fibroblasts” value was < 0.25 µg/mL. In experiment [5], the “AUC of a 3-point dilution series” value came out at 152 ± 20.8.

B15: 3–25 UCA with VH A33G (antibody, V domains shown)
VH: QVQLVESGGGVVQPGRSLRLSCAASGFTFSSYGMHWVRQAPGKGLEWVAVISYDGSNKYYADSVKGRFTISRDNSKNTLYLQMNSLRAEDTAVYYCAREGYCSGGSCYSGQPDYWGQGTLVTVSS
VL: not shown
B15 gave an other in experiment [5] of 1.4 fold.
